In paper PMC8978339 (Cancer chemotherapy and pharmacology, 2021):

Biological target: T1, his-tagged PXRLBD (residues 130-434) (human, UniProt O75469 130-434)
T1 sequence (looked up): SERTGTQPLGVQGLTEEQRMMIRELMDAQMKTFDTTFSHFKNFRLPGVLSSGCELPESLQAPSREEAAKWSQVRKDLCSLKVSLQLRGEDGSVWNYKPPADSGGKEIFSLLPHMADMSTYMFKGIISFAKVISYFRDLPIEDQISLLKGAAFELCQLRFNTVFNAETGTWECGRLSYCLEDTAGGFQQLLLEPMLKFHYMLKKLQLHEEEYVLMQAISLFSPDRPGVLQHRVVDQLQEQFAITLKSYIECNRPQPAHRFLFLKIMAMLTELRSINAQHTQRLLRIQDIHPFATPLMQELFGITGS
Experiment: pull-down

binding result: binds
B1: SRC186 (human SRC-1 fragment, residues 595-780) (domain or fragment, UniProt Q15788 595-780, looked up)
chain: MIQSDNSSSDGKPLDSGLLHNNDRLSDGDSKYSQTSHKLVQLLTTTAEQQLRHADIDTSCKDVLSCTGTSNSASANSSGGSCPSSHSSLTERHKILHRLLQEGSPSDITTLSVEPDKKDSASTSVSVTGQVQGNSSIKLELDASKKKESKDHQLLRYLLDKDEKDLRSTPNLSLDDVKVKVEKKEQ
modifications: biotin (labeled with biotin reagent)
